Assay results from patent US6512097.
Substitutions are numbered along the chain they refer to. Names may count otherwise. “And” between values parts separate entries of the source, which are not always exact repeats. Equal values may be shown once.

B1: C6ML3-20 (scFv)
scFv: QVQLLQSGAELKKPGESLKISCKGSGYSFTSYWIAWVRQMPGKGLEYMGLIYPGDSDTKYSPSFQGQVTISVDKSVSTAYLQWSSLKPSDSAVYFCARHDVGYCSSSNCAKWPEYFQHWGQGTLVTVSSGGGGSGGGGSGGGGSQSVLTQPPSVSAAPGQKVTISCSGSSSNIGNNYVSWYQQLPGTAPKLLIYGHTNRPAGVPDRFSGSKSGTSASLAISGFRSEDEADYYCAAWEQSLWGWVFGGGTKLTVLG
B2: C6ML3-25 (scFv)
scFv: B1 scFv with E237D, Q238N, S239R, L240H, W241S
B3: C6ML3-26 (scFv)
scFv: B1 scFv with E237D, Q238D, L240R, W241S
B4: C6ML3-24 (scFv)
scFv: B1 scFv with E237D, Q238E, S239Q, L240I, W241F
B5: C6ML3-21 (scFv)
scFv: B1 scFv with E237D, Q238Y, L240Q, W241S
B6: C6ML3-18 (scFv)
scFv: B1 scFv with A235S, E237D, Q238A
B7: C6ML3-17 (scFv)
scFv: B1 scFv with A235S, E237D, Q238Y, S239Y, L240R, W241S
B8: C6ML3-22 (scFv)
scFv: B1 scFv with E237D, Q238A, W241S
B9: C6ML3-16 (scFv)
scFv: B1 scFv with A235S, E237D, Q238Y, S239Y, L240R, W241S
B10: C6ML3-28 (scFv)
scFv: B1 scFv with A235S, E237D, Q238Y, S239A, W241S
B11: C6ML3-A3 (scFv)
scFv: B1 scFv with N108D, A235S, E237D, Q238Y, S239T, W241S
B12: C6MH3-D1 (scFv)
scFv: B1 scFv with Y115W, F116L, Q117H, H118V, A235S, E237D, Q238Y, S239T, W241S
notes: C6ML3-9 sFv, VH CDR3 library D mutant
B13: C6MH3-B39 (scFv)
scFv: B1 scFv with S105T, S106D, S107P, N108T, A235S, E237D, Q238Y, S239T, W241S
notes: C6ML3-9 sFv, VH CDR3 library B mutant
B14: C6MH3-B48 (scFv)
scFv: B1 scFv with S105T, S106D, S107P, N108S, A235S, E237D, Q238Y, S239T, W241S
notes: as for B13
B15: C6MH3-B25 (scFv)
scFv: B1 scFv with S105L, S106T, S107T, N108R, A235S, E237D, Q238Y, S239T, W241S
notes: as for B13
B16: C6MH3-B16 (scFv)
scFv: B1 scFv with S105A, S106D, S107V, N108R, A235S, E237D, Q238Y, S239T, W241S
notes: as for B13
B17: C6MH3-B27 (scFv)
scFv: B1 scFv with S105K, S106N, N108R, A235S, E237D, Q238Y, S239T, W241S
notes: as for B13
B18: C6MH3-B15 (scFv)
scFv: B1 scFv with S105E, N108R, A235S, E237D, Q238Y, S239T, W241S
notes: as for B13
B19: C6MH3-B21 (scFv)
scFv: B1 scFv with S105T, S106T, S107P, N108L, A235S, E237D, Q238Y, S239T, W241S
notes: as for B13
B20: C6MH3-B9 (scFv)
scFv: B1 scFv with S105K, S106T, S107A, N108A, A235S, E237D, Q238Y, S239T, W241S
notes: as for B13
B21: C6MH3-B41 (scFv)
scFv: B1 scFv with S105T, S106D, S107R, N108P, A235S, E237D, Q238Y, S239T, W241S
notes: as for B13
B22: C6MH3-D5 (scFv)
scFv: B1 scFv with Y115W, F116M, H118M, A235S, E237D, Q238Y, S239T, W241S
notes: as for B12
B23: C6MH3-B11 (scFv)
scFv: B1 scFv with S106D, S107R, N108S, A235S, E237D, Q238Y, S239T, W241S
notes: as for B13
B24: C6MH3-C3 (scFv)
scFv: B1 scFv with G15E, N198D, A235S, E237D, Q238Y, S239T, W241S
B25: C6MH3-B20 (scFv)
scFv: B1 scFv with S106P, S107A, N108R, A235S, E237D, Q238Y, S239T, W241S
notes: as for B13
B26: C6MH3-B5 (scFv)
scFv: B1 scFv with S105T, S106D, S107A, N108T, A235S, E237D, Q238Y, S239T, W241S
notes: as for B13
B27: C6MH3-B2 (scFv)
scFv: B1 scFv with S105T, S106D, S107P, N108R, A235S, E237D, Q238Y, S239T, W241S
notes: as for B13
B28: C6MH3-D3 (scFv)
scFv: B1 scFv with Y115W, F116L, Q117D, H118N, A235S, E237D, Q238Y, S239T, W241S
notes: as for B12
B29: C6MH3-D6 (scFv)
scFv: B1 scFv with Y115W, F116M, Q117Y, H118P, A235S, E237D, Q238Y, S239T, W241S
notes: as for B12
B30: C6HL3-10 (scFv)
scFv: B1 scFv with Q238D, S239P, L240W, W241Y
notes: label as printed (probably C6ML3-10)
B31: C6ML3-1 (scFv)
scFv: B1 scFv with E237D, Q238Y
B32: C6.5F100lA (scFv)
scFv: B1 scFv with F116A, E237D, Q238D, W241S
notes: C6.5 VH CDR3 scan mutant; Kabat numbering; also called F1001A
B33: C6.5H102A (scFv)
scFv: B1 scFv with H118A, E237D, Q238D, W241S
notes: C6.5 VH CDR3 scan mutant; Kabat numbering
B34: C6.5S100bA (scFv)
scFv: B1 scFv with S106A, E237D, Q238D, W241S
notes: as for B33
B35: C6.5K100gA (scFv)
scFv: B1 scFv with K111A, E237D, Q238D, W241S
notes: as for B33
B36: C6.5P100iA (scFv)
scFv: B1 scFv with P113A, E237D, Q238D, W241S
notes: as for B33
B37: C6.5V97A (scFv)
scFv: B1 scFv with V101A, E237D, Q238D, W241S
notes: as for B33
B38: C6.5Y99A (scFv)
scFv: B1 scFv with Y103A, E237D, Q238D, W241S
notes: as for B33
B39: C6.5S100aA (scFv)
scFv: B1 scFv with S105A, E237D, Q238D, W241S
notes: as for B33
B40: C6.5S100cA (scFv)
scFv: B1 scFv with S107A, E237D, Q238D, W241S
notes: as for B33
B41: C6.5Q101A (scFv)
scFv: B1 scFv with Q117A, E237D, Q238D, W241S
notes: as for B33
B42: C6.5N100dA (scFv)
scFv: B1 scFv with N108A, E237D, Q238D, W241S
notes: as for B33

Each binder was assayed against T1, c-erbB-2 ECD with a Ser-Gly-His6 C-terminal fusion (UniProt P04626 23-652) (assay: SPR BIAcore).
T1 construct: extracellular domain; Expressed from CHO cells, IMAC purified; coupled to a CM5 chip, coated on plates, or biotinylated with NHS-LC-biotin; also called c-erbB-2 extracellular domain; biotinylated c-erbB-2 ECD

Binder	Kd [nM]	koff [s⁻¹]
B1	3	0.0014
B2	7.4	0.0044
B3	8.3	0.005
B4	12.4	0.0079
B5	4.5	0.0022
B6	2.4	0.00062
B7	5	0.0017
B8	8.3	0.0036
B9	5	0.0017
B10	2.5	0.0017

Target: T1, c-erbB-2 ECD with a Ser-Gly-His6 …
Assay: SPR BIAcore
Remark: another data set of the same source
Description: All assays were performed in triplicate. Briefly, […] of radioiodinated sFv was added to 5×10^6 SK-OV cells in the presence of increasing concentrations of unlabeled sFv from the same preparation. After a 30 minute incubation at 20° C., the samples were washed with PBS at 4° C. and centrifuged at 500 g. The amount of labeled sFv bound to the cells was determined by counting the pellets in a gamma counter and the K_a, and K_d were calculated using the EBDA program (V 2.0, G. A. McPherson, 1983). The K_d of all the other isolated sFv were determined using surface plasmon resonance in a BIAcore (Pharmacia). In a BIAcore flow cell, approximately 1400 resonance units (RU) of c-erbB-2 ECD (25 μg/ml in 10 mM sodium acetate, pH 4.5) was coupled to a CM5 sensor chip (Johnsson et al. (1991), supra). Association and dissociation-rates were measured under continuous flow of […] using a concentration range from 50 to 800 nM. Rate constant $kon$ was determined from a plot of (1(dR/dt))/t vs concentration (Karlsson et al. (1991), supra). Rate constant $Hoff$ was determined from the dissociation part of the sensorgram at the highest concentration of sFv analyzed.
Dashes indicate sequence identity. Mutations arising from PCR error and located outside V_H CDR3 are listed under the heading other mutations. F = frequency of isolated scFv. *$koff$ determined from unpurified scFv samples. Underline indicates mutated residue.

Binder	Kd	koff
B11	16 nM	0.0063 s⁻¹
B12	0.31 nM	0.00011 s⁻¹
B13	0.32 nM	0.00019 s⁻¹
B14	0.23 nM	0.00013 s⁻¹
B15	0.36 nM	0.00019 s⁻¹
B16	0.31 nM	0.00028 s⁻¹
B17	0.47 nM	0.0004 s⁻¹
B18	0.77 nM	0.00029 s⁻¹
B19	0.73 nM	0.00024 s⁻¹
B20	0.87 nM	0.00033 s⁻¹
B21	0.53 nM	0.00027 s⁻¹
B22	0.38 nM	0.00021 s⁻¹
B23	0.22 nM	0.00023 s⁻¹
B24	0.65 nM	0.00032 s⁻¹
B25	0.87 nM	0.00016 s⁻¹
B26	0.34 nM	0.00023 s⁻¹
B27	0.31 nM and 0.58 nM	0.00031 s⁻¹ and 0.00032 s⁻¹
B28	0.27 nM	0.00025 s⁻¹
B29	0.35 nM	0.00018 s⁻¹

Target: T1, c-erbB-2 ECD with a Ser-Gly-His6 …
Assay: SPR BIAcore
Remark: another data set of the same source

Binder	Kd [nM]	koff [s⁻¹]
B30	2.3	0.0014
B31	6.7	0.002

Target: T1, c-erbB-2 ECD with a Ser-Gly-His6 …
Assay: SPR BIAcore
Remark: another data set of the same source

Binder	Kd [nM]	Kd (mutant)/Kd (C6.5)	koff [s⁻¹]	kon [M⁻¹ s⁻¹]
B32	454	28.4	0.05	110000
B33	19	1.2	0.011	590000
B34	47	2.9	0.016	340000
B35	9.8	0.6	0.0042	430000
B36	10	0.6	0.011	1.05e+06
B37	48	3	0.015	310000
B38	59	3.7	0.053	900000
B39	28	1.8	0.013	470000
B40	24	1.5	0.011	450000
B41	8.2	0.5	0.0098	1.2e+06
B42	29	1.8	0.012	410000
